Measured values: patent US9663815B2, “Cytosolically-active peroxidases as reporters for microscopy” (Massachusetts Institute of Technology, priority 2011, dated 2017)
Positions count from the first letter of the chain named. Numbers in names are those of the source.

Key:
HEK cells = assay: DAB staining of transfected cells (brightfield); assay type: cell-based
Experimental: Next, the activity of wt APX and mAPX was compared in mammalian cells.
(§1) To generate a monomeric APX with improved activity, the two mAPX mutations (K14D/E112K) were added to each of the activity-enhanced mutants. […] The sextuple mutant (K14D, E112K, W41F, D133A, T135F, K136F=mAPX−FFAF), was compared to mAPX+W41F within cells. HEK cells were transfected with constructs targeted to the mitochondrial matrix (Table 3), while COS-7 cells were transfected with constructs fused to the C-terminus of connexin 43 (Table 3). After fixation, the cells were treated with DAB and H2O2 to generate DAB polymer. […] After fixation, cells were stained with anti-Flag (for matrix) or anti-myc (for connexin) antibody to visualize peroxidase expression levels. […] Therefore mAPX+W41F (K14D/E112K/W41F) was selected, denoted as “APEX” (for Enhanced APX), as the optimized reporter for subsequent experiments.
A solution of 4% formaldehyde (freshly depolymerized from paraformaldehyde) with 2% glutaraldehyde in 10 mM phosphate buffered saline (PBS) was added to cells 24 hours after transfection. Cells were treated for 3 min at room temperature, then 30 min on ice. Cells were then washed 5×2 min using ice cold 10 mM PBS. Cells were blocked with 20 mM glycine for 5 min on ice. Cells were then washed 5×2 min with ice-cold 10 mM PBS. Cells were then treated with an ice-cold solution of DAB (0.5 mg/mL) and H2O2 (0.03%) in 10 mM PBS for 20 min. Cells were then washed 5×2 min with ice-cold 10 mM PBS. Cells were treated with 2% OsO4 in ice-cold 10 mM PBS for 30 min, then washed 5×2 min with ice-cold distilled deionized water. Cells were then placed under ice-cold 2% aqueous uranyl acetate for 24 hours.
(§2) Any cell displaying detectable GFP fluorescence was considered transfected. Contact sites between neighboring transfected cells were identified using DIC imaging. Gap junctions were identified as lines of GFP fluorescence unambiguously overlaying with the plasma membrane of two transfected cells based on DIC. DAB stain intensity for APX-NES variants was analyzed using SlideBook. Transfected cells were identified by nuclear YFP fluorescence. In each transfected cell, a representative DAB-stained region was encircled, and its average brightfield intensity was calculated. Background intensity, determined for each field of view by encircling a representative region in the cytosol of an untransfected cell, was subtracted out. The bar graph in FIG. 2c represents mean data from >60 transfected cells.

[1] = Gel filtration chromatography, oligomerization state; assay type: physicochemical; details: PBS pH 7.4
Experimental: APX, fluorescent protein, or miniSOG preparations were diluted to the desired concentrations using chilled (4° C.) PBS and then allowed to incubate at room temperature for 30 min to overnight. Samples (100 μL) were run on a Waters HPLC system over a Superdex 75 10/300 column (GE Healthcare) that had been pre-equilibrated in PBS, pH 7.4. Samples were run isocratically in PBS at a flow rate of 0.5 mL/min. Elution of APX was monitored at 280 nm and 405 nm (heme absorbance). Empower software (Waters) was used for analysis of elution profiles. Apparent MWs were determined against low molecular weight standards (GE). […] The apparent MW of the monomer for wt APX was assumed to be equal to the apparent MW of mAPX at 0.25 μM.
To investigate whether this localization is an artifact of APEX dimerization at high concentrations, the experiment was repeated using a tandem dimer of APX^W41F (two APX^W41F proteins linked with a short amino acid chain, denoted tdAPX) as well as miniSOG in place of APEX. Additionally, gel filtration chromatography (GFC) was used to assess the relative abundance of oligomers that formed at increasing tdAPX concentrations in vitro (5 μM, 20 μM, and 47 μM). Three different linker lengths (18, 23, and 28 amino acids) were tested. His6-tagged proteins were expressed and purified from E. coli. All three variants gave a major peak with an apparent molecular weight (MW) of ˜56 kDa, as expected for tdAPX. The apparent MW of the major peak remained constant as a function of concentration for all three constructs. […] Therefore, the 28 amino acid linker variant was selected as the optimized tandem dimer to be used in EM experiments.

connexin43 (Cx43) = assay: Connexin43 fusion localization to gap junctions; assay type: cell-based, rat; details: for localization of connexin43 fusion / gap junction formation: fused to connexin43
Experimental: Both mAPX and wt APX were fused to connexin43 (Cx43), a protein that is sensitive to oligomeric tags (FIG. 4d) (McKinney, et. al., Nat Meth 6, 131-133 (2009); Lauf, et. al., FEBS letters 498, 11-15 (2001)).
as §1, §2

[2] = test system: MCU (mitochondrial calcium uniporter); assay: Functional assay for Ca2+ uptake of MCU fusions; assay type: cell-based, human; details: fusion to MCU, versus Flag-tagged MCU; data not shown
COS-7 cells = assay: EM imaging after DAB/OsO4 staining; assay type: cell-based
Experimental: Transfected cells cultured on poly-d-lysine coated glass bottom dishes (P35GC-0-14-C, MatTek Corp.) were fixed using room temperature 2% glutaraldehyde (Electron Microscopy Sciences) in 100 mM sodium cacodylate buffer with 2 mM CaCl2, pH 7.4, then quickly moved to ice. Cells were kept between 0 and 4° C. for all subsequent steps until resin infiltration. After 30-60 min, cells were rinsed 5×2 min in chilled buffer, then treated for 5 min in buffer containing 20 mM glycine to quench unreacted glutaraldehyde, followed by 5×2 min rinses in chilled buffer. A freshly-diluted solution of 0.5 mg/mL 3,3′-diaminobenzidine (DAB) tetrahydrochloride or the DAB free base (Sigma) dissolved in HCl were combined with 0.03% (v/v) H2O2 in chilled buffer, and the solution was added to cells for 1 to 15 min, depending on the sample. The reaction product generation could be monitored by transmitted LM. To halt the reaction, the DAB solution was removed, and cells were rinsed 5×2 min with chilled buffer. For correlated LM-EM imaging of connexin43-GFP-APEX, the procedure was the same except cells were immersed in 2% glutaraldehyde for ˜16 h, and regions of interest were identified by GFP fluorescence prior to treatment with DAB. After the DAB reaction was halted, cells were post-fixed for 30 min using 2% osmium tetroxide (Electron Microscopy Sciences) in chilled buffer. Cells were rinsed 5×2 min in chilled distilled water, then placed in chilled 2% aqueous uranyl acetate (Electron Microscopy Sciences) overnight. […]
DAB-stained areas of embedded cultured cells were identified by transmitted light and the areas of interest were sawed out using a jeweler's saw and mounted on dummy acrylic blocks with cyanoacrylic adhesive. […] Electron micrographs recorded using a JEOL 1200 TEM operating at 80 keV.

[3] = Guaiacol activity assay (Michaelis-Menten kinetics); assay type: biochemical; details: guaiacol as substrate, purified enzyme
Experimental: Data points represent the mean±standard deviation of 2-3 independent measurements. Initial rates are shown as a function of guaiacol concentration. H2O2 concentration was 90 μM, and enzyme concentration was 20 nM in all trials. Oxidation to tetraguaiacol was monitored by absorbance at 470 nm (ε470=22×10^3 M^−1 cm^−1)^2.
High activity toward guaiacol generally correlated well with robust polymerization of DAB in vitro. Guaiacol assays were performed on a Nanodrop 2000c UV-vis spectrophotometer (Thermo Scientific) using its cuvette reader. HRP (Sigma) was prepared as a 10 μM stock in PBS, flash frozen and stored at −80° C., and thawed immediately before use. Guaiacol peroxidase activity was measured according to the protocol of Lad et. al.^35 Oxidation to tetraguaiacol was monitored by absorbance at 470 nm (ε470=22×10^3 M^−1 cm^−1). Kcat and KM were calculated by nonlinear regression fitting to the Michaelis-Menten equation using OriginPro (OriginLab Corporation). All values are reported as the mean±standard deviation for 2-3 independent Michaelis-Menten fittings, with each fitting using at least 5 values of substrate concentration ranging between 0.25 and 30 mM.
In order to improve the performance of mAPX in mammalian cells, monomeric APX was engineered with improved activity toward DAB in the hope that faster kinetics could compensate for diminished heme binding. The substrate binding site of APX was compared to that of HRP, which has faster kinetics and broader aromatic substrate tolerance (Henriksen, et. al., Journal of Biological Chemistry 274, 35005-35011 (1999)). In order to make APX more HRP-like, seven mutants of APX were designed that incorporated mostly aromatic residues into the active site (FIG. 5a). A colorimetric assay was employed using guaiacol, a prototypical aromatic peroxidase substrate, to determine Michaelis-Menten parameters (Kumar, et. al., Journal of Cell Science 108, 3725-3734 (1995); Henriksen, et. al., Journal of Biological Chemistry 274, 35005-35011 (1999)) (FIG. 5b and FIG. 10). […]

B1: APEX: triple mutant K14D/W41F/E112K of pea APX, Enhanced APX reporter (protein, listed as Pisum sativum)
chain: MGKSYPTVSPDYQDAIEKAKRKLRGFIAEKKCAPLILRLAFHSAGTFDSKTKTGGPFGTIKHQAELAHGANNGLDIAVRLLEPIKEQFPIVSYADFYQLAGVVAVEITGGPKVPFHPGREDKPEPPPEGRLPDATKGSDHLRDVFGKAMGLSDQDIVALSGGHTIGAAHKERSGFEGPWTSNPLIFDNSYFTELLTGEKDGLLQLPSDKALLTDSVFRPLVEKYAADEDVFFADYAEAHLKLSELGFAEA
**Q.** For B1, which “DAB staining activity in mitochondrial matrix” value (HEK cells; mitochondrial matrix-targeted constructs, HEK cells) is on record?
**A.** much stronger DAB stain

**Q.** What about the oligomerization state [1] of the same molecule?
**A.** equally monomeric to mAPX

**Q.** What about the “DAB stain of connexin fusion” value (connexin43 (Cx43); COS-7 cells, fused to C-terminus of connexin 43) of the same molecule?
**A.** strong DAB stain

**Q.** What about the “localization of connexin43 fusion / gap junction formation” value (connexin43 (Cx43)) of the same molecule?
**A.** behaves well as a fusion to Cx43

**Q.** And the “localization of connexin43 fusion / gap junction formation” value (connexin43 (Cx43); listed as mAPX+W41F)?
**A.** incorporated well into gap junctions

**Q.** And the “Ca2+ uptake of MCU fusion” value [2]?
**A.** performed comparably to MCU appended to a small Flag epitope tag

**Q.** And the “EM contrast / DAB staining, ER lumen” value (COS-7 cells; KDEL-targeted, COS-7)?
**A.** dense DAB staining throughout the ER tubular network

**Q.** What about the “EM contrast / DAB staining, mitochondrial matrix” value (COS-7 cells; Mito matrix-APEX, COS-7) of the same molecule?
**A.** strong contrast and well-defined cristae structures

**Q.** What about the “activity in the intermembrane space (IMS)” value (COS-7 cells; separate controls) of the same molecule?
**A.** highly active

B2: mAPX-NES: Flag-mAPX with C-terminal nuclear export signal, cytosolic expression (protein, UniProt P48534 2-250, looked up, variant K14D E112K)
L-ascorbate peroxidase, …: GKSYPTVSPDYQDAIEKAKRKLRGFIAEKKCAPLILRLAWHSAGTFDSKTKTGGPFGTIKHQAELAHGANNGLDIAVRLLEPIKEQFPIVSYADFYQLAGVVAVEITGGPKVPFHPGREDKPEPPPEGRLPDATKGSDHLRDVFGKAMGLSDQDIVALSGGHTIGAAHKERSGFEGPWTSNPLIFDNSYFTELLTGEKDGLLQLPSDKALLTDSVFRPLVEKYAADEDVFFADYAEAHLKLSELGFAEA
modifications: N-terminal Flag tag; C-terminal nuclear export signal
notes: Flag-mAPX with C-terminal nuclear export signal, cytosolic expression
**Q.** Which “activity after culturing the cells with heme” value (HEK cells; cytosol (NES), heme added after transfection) does the source give for B2 here?
**A.** significantly boosted

B3: mAPX−FFAF: sextuple mutant K14D, E112K, W41F, D133A, T135F, K136F of pea APX (protein, UniProt P48534 2-250, looked up, variant K14D E112K W41F D133A T135F K136F)
L-ascorbate peroxidase, …: B2 L-ascorbate peroxidase, … with W40F, D132A, T134F, K135F
**Q.** Which “localization of connexin43 fusion / gap junction formation” value (connexin43 (Cx43)) does the source give for B3 here?
**A.** formed very few gap junctions

B4: W41F/G69F/D133A/T135F/K136F: quintuple, most HRP-like active-site mutant of pea APX (protein, UniProt P48534 2-250, looked up, variant W41F G69F D133A T135F K136F)
L-ascorbate peroxidase, …: B2 L-ascorbate peroxidase, … with D13K, W40F, G68F, K111E, D132A, T134F, K135F
**Q.** Which “activity in vitro (guaiacol)” value [3] does the source give for B4 here?
**A.** most active
